Data published in paper PMC8163975 (The Journal of Biological Chemistry, 2021).

Experiments:
[1] = target: T1, HRAS, mGppNHp-bound (human, UniProt P01112-1 1-189); experiment: fluorescence polarisation; increasing concentrations of the RA/RB domain as MBP fusion protein (0.002-300 µM; or MBP alone) titrated to mGppNHp-bound RAS protein (1 µM); 30 mM Tris-HCl pH 7.4, 100 mM NaCl, 5 mM MgCl2, 3 mM DTT; Kd from a quadratic ligand-binding equation; settings: both partners purified
T1 construct: human HRAS; Loaded with mGppNHp, a fluorescent non-hydrolysable GTP analogue; That the RAS proteins were the pGEX (GST) constructs is surmised; also called HRAS1; p21HRAS

[2] = target: T2, RIT1, mGppNHp-bound (human, UniProt Q92963 1-219); experiment: as above; settings: both partners purified
T2 construct: human RIT1; Loaded with mGppNHp
T2 sequence (Q92963 whole entry): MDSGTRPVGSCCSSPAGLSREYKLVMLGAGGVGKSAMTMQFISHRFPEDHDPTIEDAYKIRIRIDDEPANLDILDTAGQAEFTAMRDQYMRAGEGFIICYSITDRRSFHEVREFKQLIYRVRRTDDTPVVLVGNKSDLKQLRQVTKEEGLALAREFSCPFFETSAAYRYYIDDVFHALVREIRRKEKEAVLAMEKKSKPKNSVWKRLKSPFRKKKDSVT

B1: RASSF9-to-5 variant of the RASSF9 RA domain, MBP fusion protein (domain or fragment, human, UniProt O75901 25-119, looked up)
chain: EEKEIVVWVCQEEKLDCIKTLHTTSADVIQALLEEHEATFGEKRFLLGKPSDYCIIEKWRGSERVLPPLTRILKLWKAWGDEQPNMQFVLVKADA
notes: RASSF9 RA domain (aa 25-119 of O75901, the limits of the wild-type construct) with five hotspot residues changed to those of RASSF5; source: gene synthesis (BioCat) in pMal-c5X-His vector; E. coli, purified
B1 was tested, and the Kd [1] was 40 µM and the Kd [2] was 150 µM.
